Source: the supplement of paper PMC10567573

B1: POLD2 addN (peptide)
chain: CQPISFSGFGAEDDDLGGLGLGPN
B2: BEX2 addN (peptide)
chain: HSLRAVSTDPPHHDHHDEFCLMPN
B3: SNF8 addV (peptide)
chain: LPALFTDLYSQEITAEEAREALPV
B4: PSMB5 addN (peptide)
chain: DGWIRVSSDNVADLHEKYSGSTPN
B5: PSMB5 addV (peptide)
chain: DGWIRVSSDNVADLHEKYSGSTPV
B6: TRPA1 addV (peptide)
chain: EQRNSRWNTVLRAVKAKTHHLEPV
B7: BEX2 addV (peptide)
chain: HSLRAVSTDPPHHDHHDEFCLMPV
B8: TRPA1 addN (peptide)
chain: EQRNSRWNTVLRAVKAKTHHLEPN
B9: POLD2 addV (peptide)
chain: CQPISFSGFGAEDDDLGGLGLGPV
B10: SNF8 addN (peptide)
chain: LPALFTDLYSQEITAEEAREALPN

Test: protein stability index of a GFP-peptide fusion (GPS, HEK-293T) (PSI 1-6); higher = more stable
Conditions: parent: NP_006221.1; c terminus: native
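Note: lentivirally expressed fusion library, cells FACS-sorted into six equal-sized GFP/DsRed ratio bins, PSI computed from sequencing read fractions per bin weighted by bin number.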

Point of comparison: B1, protein stability index 1.99. Against it:
- B9 — higher, 3

Same assay, conditions: parent: NP_116010.1; c terminus: native

Point of comparison: B2, protein stability index 4.18. Against it:
- B7 — lower, 3.68

Same assay, conditions: parent: NP_009172.2; c terminus: native

Point of comparison: B3, protein stability index 3.9. Against it:
- B10 — higher, 4.75

Same assay, conditions: parent: NP_002788.1; c terminus: native

Point of comparison: B4, protein stability index 4.04. Against it:
- B5 — higher, 4.27

Same assay, conditions: parent: NP_015628.1; c terminus: native

Point of comparison: B8, protein stability index 4.57. Against it:
- B6 — lower, 4.23
